Results reported in paper PMC9599728, “Polydopamine-Functionalized Copper Peroxide/ZIF-8 Nanoparticle-Based Fluorescence-Linked Immunosorbent Assay for the Sensitive Determination of Carcinoembryonic Antigen by Self-Supplied H2O2 Generatio”.

Biological target: carcinoembryonic antigen (CEA) (UniProt P06731 35-685)
Assay: sandwich FLISA (antibody capture, aptamer nanoparticle probe); CEA on anti-CEA antibody plate; linear 0.01-20 ng/mL, LOD 7.6 pg/mL (assay values, not affinity); CEA capture 37 C 1 h, aptamer probe room temperature 1 h; washes in PBS 10 mM pH 7.4; probe blocked with 1% BSA; read-out with 4 mM OPD in 10 mM HAc-NaAc pH 5.5, 3 h, 565 nm
Details: protein: commercial

carcinoembryonic antigen (CEA), sequence (P06731 35-685): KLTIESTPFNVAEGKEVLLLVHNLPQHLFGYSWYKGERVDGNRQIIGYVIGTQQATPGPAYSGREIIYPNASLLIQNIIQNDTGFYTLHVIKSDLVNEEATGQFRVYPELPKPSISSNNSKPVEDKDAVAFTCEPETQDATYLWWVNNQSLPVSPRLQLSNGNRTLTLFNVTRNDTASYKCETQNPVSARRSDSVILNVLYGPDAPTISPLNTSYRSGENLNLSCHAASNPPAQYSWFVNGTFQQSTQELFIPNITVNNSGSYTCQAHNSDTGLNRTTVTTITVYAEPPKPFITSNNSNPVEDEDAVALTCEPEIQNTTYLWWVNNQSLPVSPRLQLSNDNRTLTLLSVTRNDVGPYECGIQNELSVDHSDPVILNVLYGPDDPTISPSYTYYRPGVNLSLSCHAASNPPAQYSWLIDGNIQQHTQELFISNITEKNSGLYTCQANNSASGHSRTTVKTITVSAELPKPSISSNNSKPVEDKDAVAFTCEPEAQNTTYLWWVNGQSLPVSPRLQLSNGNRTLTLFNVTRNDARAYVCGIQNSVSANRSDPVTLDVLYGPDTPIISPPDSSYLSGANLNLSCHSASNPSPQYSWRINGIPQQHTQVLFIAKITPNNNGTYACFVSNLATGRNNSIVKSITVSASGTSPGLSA

Binder: TTTTATACCAGCTTATTCAATT (ssDNA, 5'-NH2; coupled by glutaraldehyde to CP/ZIF-8/PDA nanoparticles) [CEA aptamer]
- binding result: binds
